Among the data in article PMC7713262, “Synthesis of high-titer alka(e)nes in Yarrowia lipolytica is enabled by a discovered mechanism” (Nature Communications, 2020) are Km and kcat values, retold here.

Substrate in series [1]: CCCCCCCCCCCCCCCCCC(=O)O
In words: heptadecane formation by GC-FID; Eadie-Hofstee plot. Type of series: biochemical, Chlorella variabilis. The following applies: blue light, 20 h, 25 °C, 50 mM Tris-HCl pH 8.5, 30 vol% DMSO, lithium salt, kcat unit doubtful (Vmax 2.83 μM/h).

Substrate in series [2]: CCCCCCCCCCCCCCCCCC(=O)SCCNC(=O)CCNC(=O)[C@H](O)C(C)(C)COP(=O)(O)OP(=O)(O)OC[C@H]1O[C@@H](n2cnc3c(N)ncnc32)[C@H](O)[C@@H]1OP(=O)(O)O
The series is described as above. The following applies: blue light, 20 h, 25 °C, 50 mM Tris-HCl pH 8.5, 30 vol% DMSO, lithium salt, kcat unit doubtful (Vmax 3.22 μM/h). The series is classed as biochemical, Chlorella variabilis.

B1: CvFAP (fatty acid photodecarboxylase) (Chlorella variabilis) (protein)
chain: SAVEDIRKVLSDSSSPVAGQKYDYILVGGGTAACVLANRLSADGSKRVLVLEAGPDNTSRDVKIPAAITRLFRSPLDWNLFSELQEQLAERQIYMARGRLLGGSSATNATLYHRGAAGDYDAWGVEGWSSEDVLSWFVQAETNADFGPGAYHGSGGPMRVENPRYTNKQLHTAFFKAAEEVGLTPNSDFNDWSHDHAGYGTFQVMQDKGTRADMYRQYLKPVLGRRNLQVLTGAAVTKVNIDQAAGKAQALGVEFSTDGPTGERLSAELAPGGEVIMCAGAVHTPFLLKHSGVGPSAELKEFGIPVVSNLAGVGQNLQDQPACLTAAPVKEKYDGIAISDHIYNEKGQIRKRAIASYLLGGRGGLTSTGCDRGAFVRTAGQALPDLQVRFVPGMALDPDGVSTYVRFAKFQSQGLKWPSGITMQLIACRPQSTGSVGLKSADPFAPPKLSPGYLTDKDGADLATLRKGIHWARDVARSSALSEYLDGELFPGSGVVSDDQIDEYIRRSIHSSNAITGTCKMGNAGDSSSVVDNQLRVHGVEGLRVVDASVVPKIPGGQTGAPVVMIAERAAALLTGKATIGASAAAPATVAA
notes: codon-optimised gene, C-terminal 6xHis tag (3'-terminus), pET28, E. coli BL21(DE3), Ni-NTA purified
For B1, the results for the Km in series [1] and in series [2] were 108.31 µM and 75.30 µM, respectively. In addition, in series [1], the kcat – broadly, the maximal rate divided by the concentration of active sites – is 979.62 s⁻¹.
